From US20140274782A1, “AFFINITY REAGENTS AND METHODS FOR DETECTION, PURIFICATION, AND PROTEOMIC ANALYSIS OF METHYLATED PROTEINS” (The Board of Trustees of the Leland Stanford Junior …, priority 2013, published 2014)

T1: G9a and GLP (Homo sapiens, UniProt Q96KQ7+Q9H9B1)
T1 sequence (Q96KQ7 2-1210 limits assumed): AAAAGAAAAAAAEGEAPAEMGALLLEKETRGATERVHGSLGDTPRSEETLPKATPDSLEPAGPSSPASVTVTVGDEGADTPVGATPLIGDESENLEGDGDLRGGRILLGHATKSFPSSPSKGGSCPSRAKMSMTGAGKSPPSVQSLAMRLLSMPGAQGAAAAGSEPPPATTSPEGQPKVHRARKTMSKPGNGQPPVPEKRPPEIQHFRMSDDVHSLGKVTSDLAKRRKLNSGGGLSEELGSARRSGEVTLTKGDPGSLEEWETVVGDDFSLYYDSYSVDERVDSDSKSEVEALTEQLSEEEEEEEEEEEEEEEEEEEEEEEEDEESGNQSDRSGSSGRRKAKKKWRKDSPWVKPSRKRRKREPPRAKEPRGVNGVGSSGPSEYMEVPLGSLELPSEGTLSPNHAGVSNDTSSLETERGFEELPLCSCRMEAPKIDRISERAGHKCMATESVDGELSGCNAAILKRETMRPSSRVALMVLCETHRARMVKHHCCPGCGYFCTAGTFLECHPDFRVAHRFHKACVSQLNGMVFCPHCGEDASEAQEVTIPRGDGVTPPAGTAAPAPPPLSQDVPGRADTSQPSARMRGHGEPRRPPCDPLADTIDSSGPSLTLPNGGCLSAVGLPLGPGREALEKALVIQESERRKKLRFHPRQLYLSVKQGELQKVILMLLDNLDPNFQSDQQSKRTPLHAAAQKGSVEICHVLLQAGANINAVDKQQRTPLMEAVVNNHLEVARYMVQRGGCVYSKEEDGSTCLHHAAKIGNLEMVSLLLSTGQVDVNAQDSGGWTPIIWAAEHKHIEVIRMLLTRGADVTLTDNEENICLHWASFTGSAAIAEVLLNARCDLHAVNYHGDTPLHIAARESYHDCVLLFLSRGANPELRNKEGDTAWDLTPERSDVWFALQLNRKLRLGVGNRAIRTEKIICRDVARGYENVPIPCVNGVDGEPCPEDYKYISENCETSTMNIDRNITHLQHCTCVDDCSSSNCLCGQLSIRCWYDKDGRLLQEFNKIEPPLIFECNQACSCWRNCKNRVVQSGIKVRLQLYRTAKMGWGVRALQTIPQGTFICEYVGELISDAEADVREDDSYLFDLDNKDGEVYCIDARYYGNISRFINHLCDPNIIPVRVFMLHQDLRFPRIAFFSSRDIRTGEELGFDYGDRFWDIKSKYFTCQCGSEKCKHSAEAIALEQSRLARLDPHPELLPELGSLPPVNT
T1 sequence (Q9H9B1 2-1298 limits assumed): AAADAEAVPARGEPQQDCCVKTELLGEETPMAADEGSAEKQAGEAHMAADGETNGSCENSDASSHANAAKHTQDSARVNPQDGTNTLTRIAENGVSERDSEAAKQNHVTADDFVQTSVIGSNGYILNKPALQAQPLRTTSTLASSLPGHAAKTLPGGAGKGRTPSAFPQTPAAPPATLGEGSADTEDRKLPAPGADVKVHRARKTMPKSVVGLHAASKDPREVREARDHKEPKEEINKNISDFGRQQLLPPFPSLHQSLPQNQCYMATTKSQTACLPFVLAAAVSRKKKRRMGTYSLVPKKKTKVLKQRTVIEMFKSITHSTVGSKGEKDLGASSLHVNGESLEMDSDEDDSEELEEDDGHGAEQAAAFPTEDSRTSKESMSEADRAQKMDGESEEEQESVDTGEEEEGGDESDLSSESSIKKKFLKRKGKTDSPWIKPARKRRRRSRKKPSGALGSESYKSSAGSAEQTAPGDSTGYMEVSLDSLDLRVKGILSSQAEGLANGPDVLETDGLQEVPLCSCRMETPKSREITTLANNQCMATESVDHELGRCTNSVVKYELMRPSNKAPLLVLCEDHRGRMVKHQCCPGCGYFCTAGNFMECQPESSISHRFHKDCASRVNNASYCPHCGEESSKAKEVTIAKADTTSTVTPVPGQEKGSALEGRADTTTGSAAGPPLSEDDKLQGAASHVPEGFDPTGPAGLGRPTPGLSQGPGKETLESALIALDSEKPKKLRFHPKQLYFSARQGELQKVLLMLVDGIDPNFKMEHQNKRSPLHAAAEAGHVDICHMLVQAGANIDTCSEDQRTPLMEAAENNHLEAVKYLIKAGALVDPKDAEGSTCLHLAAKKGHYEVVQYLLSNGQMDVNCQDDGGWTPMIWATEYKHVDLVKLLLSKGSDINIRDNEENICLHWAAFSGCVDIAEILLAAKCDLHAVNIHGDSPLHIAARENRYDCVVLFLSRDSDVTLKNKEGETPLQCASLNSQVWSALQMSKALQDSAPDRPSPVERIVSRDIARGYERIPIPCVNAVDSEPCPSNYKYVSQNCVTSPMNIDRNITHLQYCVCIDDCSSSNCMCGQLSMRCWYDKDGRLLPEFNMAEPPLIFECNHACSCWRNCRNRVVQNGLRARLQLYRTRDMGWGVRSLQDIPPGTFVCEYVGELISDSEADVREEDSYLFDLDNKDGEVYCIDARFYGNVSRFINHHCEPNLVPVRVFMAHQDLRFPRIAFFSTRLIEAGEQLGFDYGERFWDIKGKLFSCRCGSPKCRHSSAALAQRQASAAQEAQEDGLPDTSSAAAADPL


Experiments:
3×MBT domain of L3MBTL1 = assay: Triple SILAC pull-down, 3xMBT/3xMBTD355N ratio (cytoplasmic, nuclear and chromatin fractions of 293T cells); assay type: binding, human; conditions: SILAC ratio, pull-down 3xMBT vs 3xMBTD355N; for 3xMBT/D355N UNC Heavy: experiment with UNC0638 in heavy SILAC media; for 3xMBT/D355N UNC Light: experiment with UNC0638 in light SILAC media;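 on all read-outs here: proteins quantified with MaxQuant, requiring at least two unique peptides and quantification in both label directions, normalized to the mean of proteins from a digested loading control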
G9a and GLP = molecular target: T1, G9a and GLP; assay: Triple SILAC pull-down after UNC0638 treatment of 293T cells, DMSO/UNC0638 ratio of protein captured by 3×MBT; assay type: cell-based; design: cells were treated for 24 hours with UNC0638 at 2.5 μM or DMSO vehicle control; endogenous in cells; host or cells: HEK 293T; conditions: for Relative to UNC0638 UNC Heavy / Relative to UNC0638 UNC Light: SILAC ratio DMSO/UNC0638 of protein pulled down with 3xMBT; for Relative to UNC0638 UNC Heavy: UNC0638 in heavy SILAC media; for Relative to UNC0638 UNC Light: UNC0638 in light SILAC media; for Relative to UNC0638 Average: average of UNC Light and UNC Heavy experiments;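 on all read-outs here: mass spectrometry (Q-Exactive) SILAC quantitation, DMSO/UNC0638 ratio computed after subtracting 3×MBTD355N mutant pull-down background, only proteins with at least twofold 3×MBT over mutant signal considered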

Relative to UNC0638 UNC Heavy (G9a and GLP) [log base 2] | Relative to UNC0638 UNC Light (G9a and GLP) [log base 2] | Relative to UNC0638 Average (G9a and GLP) [log base 2] | Molecule | 3xMBT/D355N UNC Heavy (3×MBT domain of L3MBTL1) [log base 2] | 3xMBT/D355N UNC Light (3×MBT domain of L3MBTL1) [log base 2]
0.38 | 0.05 | 0.22 | CHERP (protein, UniProt Q8IWX8 1-916, looked up) Calcium homeostasis …: MEMPLPPDDQELRNVIDKLAQFVARNGPEFEKMTMEKQKDNPKFSFLFGGEFYSYYKCKLALEQQQLICKQQTPELEPAATMPPLPQPPLAPAAPIPPAQGAPSMDELIQQSQWNLQQQEQHLLALRQEQVTAAVAHAVEQQMQKLLEETQLDMNEFDNLLQPIIDTCTKDAISAGKNWMFSNAKSPPHCELMAGHLRNRITADGAHFELRLHLIYLINDVLHHCQRKQARELLAALQKVVVPIYCTSFLAVEEDKQQKIARLLQLWEKNGYFDDSIIQQLQSPALGLGQYQATLINEYSSVVQPVQLAFQQQIQTLKTQHEEFVTSLAQQQQQQQQQQQQLQMPQMEAEVKATPPPPAPPPAPAPAPAIPPTTQPDDSKPPIQMPGSSEYEAPGGVQDPAAAGPRGPGPHDQIPPNKPPWFDQPHPVAPWGQQQPPEQPPYPHHQGGPPHCPPWNNSHEGMWGEQRGDPGWNGQRDAPWNNQPDAAWNSQFEGPWNSQHEQPPWGGGQREPPFRMQRPPHFRGPFPPHQQHPQFNQPPHPHNFNRFPPRFMQDDFPPRHPFERPPYPHRFDYPQGDFPAEMGPPHHHPGHRMPHPGINEHPPWAGPQHPDFGPPPHGFNGQPPHMRRQGPPHINHDDPSLVPNVPYFDLPAGLMAPLVKLEDHEYKPLDPKDIRLPPPMPPSERLLAAVEAFYSPPSHDRPRNSEGWEQNGLYEFFRAKMRARRRKGQEKRNSGPSRSRSRSKSRGRSSSRSNSRSSKSSGSYSRSRSRSCSRSYSRSRSRSRSRSRSSRSRSRSQSRSRSKSYSPGRRRRSRSRSPTPPSSAGLGSNSAPPIPDSRLGEENKGHQMLVKMGWSGSGGLGAKEQGIQDPIKGGDVRDKWDQYKGVGVALDDPYENYRRNKSYSFIARMKARDECK | 1.58 | 2.26
0.30 | 0.17 | 0.24 | PEF1 (protein, UniProt Q9UBV8 1-284, looked up) Peflin: MASYPYRQGCPGAAGQAPGAPPGSYYPGPPNSGGQYGSGLPPGGGYGGPAPGGPYGPPAGGGPYGHPNPGMFPSGTPGGPYGGAAPGGPYGQPPPSSYGAQQPGLYGQGGAPPNVDPEAYSWFQSVDSDHSGYISMKELKQALVNCNWSSFNDETCLMMINMFDKTKSGRIDVYGFSALWKFIQQWKNLFQQYDRDRSGSISYTELQQALSQMGYNLSPQFTQLLVSRYCPRSANPAMQLDRFIQVCTQLQVLTEAFREKDTAVQGNIRLSFEDFVTMTASRML | 1.48 | 1.78
0.32 | 0.12 | 0.22 | ZC3H11A (protein, UniProt O75152 1-810, looked up) Zinc finger CCCH …: MPNQGEDCYFFFYSTCTKGDSCPFRHCEAAIGNETVCTLWQEGRCFRQVCRFRHMEIDKKRSEIPCYWENQPTGCQKLNCAFHHNRGRYVDGLFLPPSKTVLPTVPESPEEEVKASQLSVQQNKLSVQSNPSPQLRSVMKVESSENVPSPTHPPVVINAADDDEDDDDQFSEEGDETKTPTLQPTPEVHNGLRVTSVRKPAVNIKQGECLNFGIKTLEEIKSKKMKEKSKKQGEGSSGVSSLLLHPEPVPGPEKENVRTVVRTVTLSTKQGEEPLVRLSLTERLGKRKFSAGGDSDPPLKRSLAQRLGKKVEAPETNIDKTPKKAQVSKSLKERLGMSADPDNEDATDKVNKVGEIHVKTLEEILLERASQKRGELQTKLKTEGPSKTDDSTSGARSSSTIRIKTFSEVLAEKKHRQQEAERQKSKKDTTCIKLKIDSEIKKTVVLPPIVASRGQSEEPAGKTKSMQEVHIKTLEEIKLEKALRVQQSSESSTSSPSQHEATPGARRLLRITKRTGMKEEKNLQEGNEVDSQSSIRTEAKEASGETTGVDITKIQVKRCETMREKHMQKQQEREKSVLTPLRGDVASCNTQVAEKPVLTAVPGITRHLTKRLPTKSSQKVEVETSGIGDSLLNVKCAAQTLEKRGKAKPKVNVKPSVVKVVSSPKLAPKRKAVEMHAAVIAAVKPLSSSSVLQEPPAKKAAVAVVPLVSEDKSVTVPEAENPRDSLVLPPTQSSSDSSPPEVSGPSSSQMSMKTRRLSSASTGKPPLSVEDDFEKLIWEISGGKLEAEIDLDPGKDEDDLLLELSEMIDS | 2.23 | 2.81
